The text below walks through data of patent US20220195015A1 (published 2022).

B1: C588 (antibody, V domains shown)
VH: EVQLVESGGGLVQPGGSLKLSCAASGFTFSGSAMHWVRQASGKGLEWVGRIRNKANSYATAYGASVRGRFTVSRDDSKNTAYLQMNSLKIEDTAVYYCTKDIAAGIPALNWFDSWGQGTLVTVSS
VL: EIVLTQSPATLSLSPGERATLSCRASQSVSSYLAWYQQKPGQAPRLLIYDASNRATGIPARFSGSGSGTDFTLTISSLEPEDFAVYYCQQHTNWPPRITFGGGTKVEIK
B2: C590 (antibody, V domains shown)
VH: QVQLVQSGAEVKKPGASVKVSCKVSGYNLTELSMYWVRQAPGKGLEWMGGFDPEDGGPIHAQKFQGRVTMTEDPSTDTAYMELRSLRSEDTALYYCATGGLFMIRGLEIWGRGTLVTVSS
VL: EIVLTQSPGTLSLSPGERATLSCRASQSISYTSLAWYQQKPGQAPRLLIFGASRGATGTPDRFSGSWSGTDFTLTISRLEPEDFAVYYCQQYGNSPRLSFGGGTKVEIK
B3: C583 (antibody, V domains shown)
VH: EVQLVESGGGLIQPGGSLRLSCAASILTVSRNYMSWVRQAPGKGLEWVSSIYSGGTTYYADSVKGRFTISRDDSKNTLYLQMNSLRAEDTAVYYCARPVVGGRAGMDVWGQGTTVTVSS
VL: DIQMTQSPSSLSASVGDRVTITCQASQDINKYLNWYQQKPGKAPKLLIYDASNLETGVPSRFSGSGSGTDFTFTISSLQPEDIGTFYCLHNDNPPLTFGGGTKVEIK
B4: C586 (antibody, V domains shown)
VH: EVQLVESGGGLIQPGGSLRLSCTASGLIVSSNYMSWIRQAPGKGLEWVSLIYSGGSTFYADSVKGRFTISRDNSKNTLFLHMNSLRAEDTAVYYCARHPYGTDVWGQGTTVTVSS
VL: DIQMTQSPSSLSASVGDRVTITCQASQDIVKYLNWYQQKSGKAPKLLIHDASNLETGVTSRFSGSGSGTHFTFTISSLQPEDLATYYCQQYDNLPITFGQGTRLEIK
B5: C589 (antibody, V domains shown)
VH: QVQLQESGPGLVKPSQTLSLTCTVSGGSISSGDYYWSWIRQPPGKGLEWIGYIYYSGSTNYNPSLRSRVTISVDTSKNQFSLRLRSVTAADTAVYYCARDAIGSASYGVEYFQHWGQGTLVTVSS
VL: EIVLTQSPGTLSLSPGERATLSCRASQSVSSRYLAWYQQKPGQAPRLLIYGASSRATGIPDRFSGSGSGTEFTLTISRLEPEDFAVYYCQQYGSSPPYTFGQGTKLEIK
B6: C585 (antibody, V domains shown)
VH: QVQLQESGPGLVKPSETLSLTCTVSGDSISSYFWSWIRQPPGRGLEWIGYIHDSVNTNYNPSLKSRVTISVDTSKSQFSLRLSSVTAADTAVYYCARCAWLRGSFDYWGQGTLVTVSS
VL: NFMLTQPHSVSESPGKTVTISCTGSSGSIASNYVQWYQQRPGSAPTTVIYEDNQRPSGVPDRFSGSIDSSSNSASLTISGLKTEDEADYYCQSYDFSSHYVFGTGTKVTVL
B7: C584 (antibody, V domains shown)
VH: EVQLVESGGGLVQPGGSLRLSCAASGFTFSTYDMHWVRQATGKGLEWVSAIGTAGDKYYPGSVKGRFTISRENAKNSLYLQMNSLRAGDTAVYYCVRAGYSSGWPLYWYFDLWGRGTLVTVSS
VL: DIQMTQSPSSLSASVGDRVTITCRASQSISSYLNWYQQKPGKAPKFLIYAASSLQSGVPSRFSGSGSGTDFTLTISNLQPEDFATYYCQQSYRTPPEFTFGPGTKVDIK
B8: C587 (antibody, V domains shown)
VH: QVQLVQSGAEVKKSGSSVKVSCKASGGSFSSYAISWVRQAPGQGLEWMGGIIPIFGTAKYAQKFQGRVTITADESTSTAYMELSSLRSEDTAVYYCASRWEQLNGGSWHYFDYWGQGTLVTVSS
VL: QSALTQPASVSGSPGQSITISCTGTRSDVGRNNLVSWYQHHPGKAPKVMIYEGSKRPSGVSTRFSGSKSGNTASLTISGLQAEDEADYYCCSYAGSSTFEGVFGGGTKLTVL
B9: C002 (antibody, V domains shown)
VH: EVQLVESGGGVVQPGRSLRLSCAASGFTFSIYGMHWVRQAPGKGLEWVAVISYDGSNKYYADSVKGRFTISRDNSKNTLYLQMNSLRAEDTAVYYCAKEGRPSDIVVVVAFDYWGQGTLVTVSS
VL: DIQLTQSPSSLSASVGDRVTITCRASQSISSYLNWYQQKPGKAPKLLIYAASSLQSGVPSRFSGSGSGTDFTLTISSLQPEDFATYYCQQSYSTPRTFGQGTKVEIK
B10: C021 (antibody, V domains shown)
VH: QVQLQESGPGLVKPSQTLSLTCTVSGGSISSGGYYWSWIRQHPGKGLEWIGYIYYSGSTYYNPSLKSRVTISVDTSKNQFSLKLSSVTAADTAVYYCARVWQYYDSSGSFDYWGQGTLVTVSS
VL: not shown

For the first assay, the target named is SARS-CoV-2 RBD (S protein residues 319-539), wild type (SARS-CoV-2, UniProt P0DTC2 319-539). In words: ELISA, RBD coated on plate, mAb titrated. (In an ELISA, binding on a coated surface is turned into a signal by an enzyme label.)
Consider B1, for which the EC50 (commonly the concentration at which the effect is half-maximal) stood at 1.36 ng/mL.

On to B2, for which the EC50 is 2.81 ng/mL.

In turn, B3 had an EC50 of 4.42 ng/mL.

B4 gave a concentration giving a half-maximal response (EC50) of 5.42 ng/mL.

B5 gave an EC50 of 6.61 ng/mL.

B6 displayed a half-maximal effective concentration (EC50) of 11 ng/mL.

For B7, it took 10.5 ng/mL to reach a half-maximal effect (EC50).

Take B8: the half-maximal effective concentration (EC50) stood at 4.39 ng/mL.

The target of another assay is SARS-CoV-2 spike receptor binding domain (RBD), wild type (SARS-CoV-2, UniProt P0DTC2 319-539). The assay can be described thus: ELISA on coated RBD protein.
B9: the midpoint of the response, the EC50, lay at 1.98 ng/mL.

On to B10, for which the 50% effective concentration (EC50) stood at 4.19 ng/mL.
